# In publication PMC8303780, “Mutational Analysis of Redβ Single Strand Annealing Protein: Roles of the 14 Lysine Residues in DNA Binding and Recombination In Vivo”:
# T1: Redβ WT (bacteriophage λ, UniProt P03698 1-261)
# T1 sequence: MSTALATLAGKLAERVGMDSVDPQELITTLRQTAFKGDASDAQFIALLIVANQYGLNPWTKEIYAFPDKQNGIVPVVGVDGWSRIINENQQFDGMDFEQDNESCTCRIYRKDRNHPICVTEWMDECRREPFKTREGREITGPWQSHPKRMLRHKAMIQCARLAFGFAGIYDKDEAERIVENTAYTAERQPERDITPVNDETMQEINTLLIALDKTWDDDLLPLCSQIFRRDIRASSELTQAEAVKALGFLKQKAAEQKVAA
# T2: Redβ K111A K111A (bacteriophage λ) (UniProt P03698)
# T2 sequence: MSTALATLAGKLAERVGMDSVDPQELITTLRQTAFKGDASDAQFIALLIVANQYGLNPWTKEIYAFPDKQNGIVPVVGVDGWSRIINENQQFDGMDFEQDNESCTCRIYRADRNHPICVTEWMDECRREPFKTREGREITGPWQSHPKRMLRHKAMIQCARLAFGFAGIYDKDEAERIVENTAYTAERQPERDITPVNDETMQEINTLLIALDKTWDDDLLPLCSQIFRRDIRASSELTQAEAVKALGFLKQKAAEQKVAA
# T3: Redβ K258A K258A (bacteriophage λ) (UniProt P03698)
# T3 sequence: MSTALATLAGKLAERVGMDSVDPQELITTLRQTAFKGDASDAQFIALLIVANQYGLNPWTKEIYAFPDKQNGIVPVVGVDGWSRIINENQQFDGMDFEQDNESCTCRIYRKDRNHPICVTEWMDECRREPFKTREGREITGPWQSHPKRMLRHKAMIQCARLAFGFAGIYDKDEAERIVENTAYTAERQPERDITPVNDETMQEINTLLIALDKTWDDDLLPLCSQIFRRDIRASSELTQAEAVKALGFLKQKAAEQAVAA
# T4: Redβ K253A K253A (bacteriophage λ) (UniProt P03698)
# T4 sequence: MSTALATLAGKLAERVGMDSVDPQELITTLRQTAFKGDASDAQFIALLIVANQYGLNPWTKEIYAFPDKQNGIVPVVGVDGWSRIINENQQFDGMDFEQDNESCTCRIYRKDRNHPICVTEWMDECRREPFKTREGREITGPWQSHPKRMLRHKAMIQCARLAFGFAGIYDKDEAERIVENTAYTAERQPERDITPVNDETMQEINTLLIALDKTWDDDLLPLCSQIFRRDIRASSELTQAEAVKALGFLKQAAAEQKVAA
# T5: Redβ K61A K61A (bacteriophage λ) (UniProt P03698)
# T5 sequence: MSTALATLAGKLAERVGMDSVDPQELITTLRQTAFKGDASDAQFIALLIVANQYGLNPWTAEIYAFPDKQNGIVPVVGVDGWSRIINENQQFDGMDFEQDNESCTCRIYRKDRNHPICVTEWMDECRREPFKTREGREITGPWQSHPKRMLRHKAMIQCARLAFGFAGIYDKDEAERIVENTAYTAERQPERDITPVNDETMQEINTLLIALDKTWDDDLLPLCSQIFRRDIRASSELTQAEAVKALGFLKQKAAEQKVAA
# T6: Redβ K36A K36A (bacteriophage λ) (UniProt P03698)
# T6 sequence: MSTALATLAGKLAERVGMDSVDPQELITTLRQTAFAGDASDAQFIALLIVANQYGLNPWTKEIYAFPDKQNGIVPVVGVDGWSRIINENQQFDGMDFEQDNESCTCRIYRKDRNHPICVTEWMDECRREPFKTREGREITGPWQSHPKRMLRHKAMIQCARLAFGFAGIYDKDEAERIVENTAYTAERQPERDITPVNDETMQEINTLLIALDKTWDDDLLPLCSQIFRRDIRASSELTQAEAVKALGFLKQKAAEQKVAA
# T7: Redβ K148A (bacteriophage λ, UniProt P03698 1-261, K148A)
# T7 sequence: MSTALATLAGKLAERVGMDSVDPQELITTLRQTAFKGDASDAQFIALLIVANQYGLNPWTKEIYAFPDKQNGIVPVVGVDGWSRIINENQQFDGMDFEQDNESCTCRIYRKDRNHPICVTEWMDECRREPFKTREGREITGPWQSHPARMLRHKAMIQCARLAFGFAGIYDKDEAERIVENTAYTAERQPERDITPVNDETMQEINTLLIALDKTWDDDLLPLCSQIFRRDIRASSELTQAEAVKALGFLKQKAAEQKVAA
# T8: Redβ K258A (bacteriophage λ, UniProt P03698 1-261, K258A)
# T8 sequence: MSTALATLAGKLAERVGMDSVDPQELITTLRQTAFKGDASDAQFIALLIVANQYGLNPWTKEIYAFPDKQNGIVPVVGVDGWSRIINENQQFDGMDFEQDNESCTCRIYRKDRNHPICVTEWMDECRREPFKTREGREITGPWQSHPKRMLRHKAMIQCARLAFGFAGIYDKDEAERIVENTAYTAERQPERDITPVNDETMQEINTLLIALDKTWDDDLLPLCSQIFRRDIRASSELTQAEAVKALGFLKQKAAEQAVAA
# T9: Redβ K132A (bacteriophage λ, UniProt P03698 1-261, K132A)
# T9 sequence: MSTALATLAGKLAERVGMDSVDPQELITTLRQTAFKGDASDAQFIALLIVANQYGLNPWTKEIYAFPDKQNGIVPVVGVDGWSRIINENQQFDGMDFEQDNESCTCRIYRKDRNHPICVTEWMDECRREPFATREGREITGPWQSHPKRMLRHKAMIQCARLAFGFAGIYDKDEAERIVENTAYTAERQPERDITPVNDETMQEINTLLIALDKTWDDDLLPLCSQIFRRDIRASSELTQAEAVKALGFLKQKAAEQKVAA
# B1: annealed duplex of Cy3 and Cy5 50-mers, strands added sequentially (dsDNA)
# DNA 1: GCGGATGGCTTAGAGCAGAATCGCCCTGCATAGCTCGATTTTTGCGGATG
# DNA 2: CCATCCGCAAAAATCGAGCTATGCAGGGCGATTCTGCTCTAAGCCATCCG
# Legend:
# Redβ WT = target: T1, Redβ WT; test: fluorescence anisotropy; conditions: Anisotropy: 50 mM Tris-HCl pH 7.5, 1 mM DTT, 0.1 mg/mL BSA, 10 nM FAM48, 23 °C (Kd per monomer), gel assay: 10 µM Redβ, 50 µM nt of each oligo, PBS, 37 °C
# [1] = target: T2, Redβ K111A K111A (bacteriophage λ); test: fluorescence anisotropy; conditions: Anisotropy: 50 mM Tris-HCl pH 7.5, 1 mM DTT, 0.1 mg/mL BSA, 10 nM FAM48, 23 °C (Kd per monomer), gel assay: 10 µM Redβ, 50 µM nt of each oligo, PBS, 37 °C
# [2] = target: T3, Redβ K258A K258A (bacteriophage λ); test: fluorescence anisotropy; conditions: Anisotropy: 50 mM Tris-HCl pH 7.5, 1 mM DTT, 0.1 mg/mL BSA, 10 nM FAM48, 23 °C (Kd per monomer), gel assay: 10 µM Redβ, 50 µM nt of each oligo, PBS, 37 °C
# [3] = target: T4, Redβ K253A K253A (bacteriophage λ); test: fluorescence anisotropy; conditions: Anisotropy: 50 mM Tris-HCl pH 7.5, 1 mM DTT, 0.1 mg/mL BSA, 10 nM FAM48, 23 °C (Kd per monomer), gel assay: 10 µM Redβ, 50 µM nt of each oligo, PBS, 37 °C
# [4] = target: T5, Redβ K61A K61A (bacteriophage λ); test: fluorescence anisotropy; conditions: Anisotropy: 50 mM Tris-HCl pH 7.5, 1 mM DTT, 0.1 mg/mL BSA, 10 nM FAM48, 23 °C (Kd per monomer), gel assay: 10 µM Redβ, 50 µM nt of each oligo, PBS, 37 °C
# [5] = target: T6, Redβ K36A K36A (bacteriophage λ); test: fluorescence anisotropy; conditions: Anisotropy: 50 mM Tris-HCl pH 7.5, 1 mM DTT, 0.1 mg/mL BSA, 10 nM FAM48, 23 °C (Kd per monomer), gel assay: 10 µM Redβ, 50 µM nt of each oligo, PBS, 37 °C
# Redβ K148A = target: T7, Redβ K148A; test: EMSA; strands added sequentially; Anisotropy: 50 mM Tris-HCl pH 7.5, 1 mM DTT, 0.1 mg/mL BSA, 10 nM FAM48, 23 °C (Kd per monomer); gel assay: 10 µM Redβ, 50 µM nt of each oligo, PBS, 37 °C, 1% agarose at 22 °C; conditions: protein: recombinant; tags: 6xHis removed by thrombin; residual N-terminal GSH; label: 5'-Cy3 and 5'-Cy5; complementary 50-mers; annealed by protein
# Redβ K258A = target: T8, Redβ K258A; test: as above; conditions: protein: recombinant; tags: 6xHis removed by thrombin; residual N-terminal GSH; label: 5'-Cy3 and 5'-Cy5; complementary 50-mers; annealed by protein
# Redβ K132A = target: T9, Redβ K132A; test: as above; conditions: protein: recombinant; tags: 6xHis removed by thrombin; residual N-terminal GSH; label: 5'-Cy3 and 5'-Cy5; complementary 50-mers; annealed by protein
molecule,measurement,setting,value
FAM48 48-mer ssDNA,Kd,Redβ WT,110 nM
same,Kd,[1],2400 nM
same,Kd,[2],110 nM
same,Kd,[3],210 nM
same,Kd,[4],390 nM
same,Kd,[5],530 nM
B1,binding result,Redβ K148A,no binding
same,binding result,Redβ K258A,binds
same,binding result,Redβ K132A,no binding
